Tests used:
[1] = test system: embryonic chicken dorsal root ganglia (DRG) neurons; assay: Survival of dissociated embryonic chick dorsal root ganglia (DRG) neurons, 48 h, counting of surviving neurons; format: cell-based
Method: Dissociated cultures of embryonic chicken dorsal root ganglia (DRG) were generated as described in details by Krieglstein and Unsicker (Neurochem. Res., 21(7) (1996) 843-850). Briefly, DRGs from white Leghorn chick embryos (day 8) were dissected in Ca^2+-Mg^2+ free Hanks' balanced salt solution. After incubation in 0.08% trypsin for 15 min ganglia were dissociated by trituration. Cells were seeded in polyomithin-laminin coated 96-well microtiter plates (A/2 Costar) at a density of 1,200 cells/well. Growth factors were applied at the time of plating in a final volume of […] Dulbecco's Modified Eagle's Medium supplemented with 0.25% bovine serum albumin, N1 additives and 100 U/ml penicillin. As a positive control, nerve growth factor (NGF) was used at the saturating concentration of 5 ng/ml. After 48 h of incubation at 37° C. in a humidified atmosphere containing 5% CO2, cultures were fixed with 2.5% glutaraldehyde. Neuronal cells were identified by their phase-bright and neurite-bearing morphologies and counted within 30% of the total surface area using phase contrast microscopy. In the first set of experiments we tested the survival promoting effect of several growth factors of the bone morphogenetic protein family.
(§1) Embryonic chick ciliary (CG), dorsal root (DRG), and sympathetic (SG) ganglia at embryonic day(s) (E) 8, 10, and 12, were dissected, freed from nerve roots and connective tissue and collected in CME. Ganglia were incubated in trypsin (ICN), washed and dissociated by trituration using fire-polished Pasteur pipettes. Cultures were set up in 96-well microtiter plates (Costar, A/2), precoated with poly-L-ornithine and laminin at a density of 1,200-1,500 cells/well in DMEM supplemented with N1 additives, 0.25% BSA, and 0.1% PSN (DME/N1) and incubated at 37° C. in a 5% CO2 incubator.
(§2) At appropriate times (CG: 24 h, DRG: 48 h, SG: 72 h) cultures were fixed by addition of 2.5% glutardialdehyde in phosphate buffered saline (PBS). Numbers of surviving neurons were determined by direct counting of 30% of the surface area using phase contrast microscopy.
Dissociated cultures of embryonic chicken dorsal root ganglia (DRGs) were generated as described in details by Krieglstein and Unsicker (Dev. Brain. Rees. 93 (1996) 10-17). Briefly, DRGs were dissected in Ca^2+-Mg^2+ free Hank's balanced salt solution (CMF). After incubation in 0.08% trypsin (BioWhittaker) for 15 min, ganglia were dissociated by gentle trituration using fire-polished Pasteur pipettes. Cells in suspension (neuron/non-neuron ratio 1:2) were seeded in polyomithin-laminin coated 96-well microtiter plates (A/2 Costar) at a density of 1,200 cells/well. Growth factors were applied at the time of plating in a final volume of 50 μl Dulbecco's Modified Eagle's Medium supplemented with 0.25% bovine serum albumin, N1 additives (Bottenstein et al., Exp. Cell Res. 125 (1980) 183-190) and 100 U/ml penicillin. As a positive control, nerve growth factor (NGF) was used at the saturating concentration of 10 ng/ml. After 48 h of incubation at 37° C. in a humidified atmosphere containing 5% CO2, cultures were fixed with 2.5% glutaraldehyde in phosphate buffered saline (PBS). Neuronal cells were identified by their phase-bright and neurite-bearing morphologies and counted within 30% of the total surface area using phase contrast microscopy. All experiments were performed in at least triplicate in two independent experiments. Data are presented as mean±SEM. Statistical comparisons were made with student's double t-test, ANOVA and MicrocalOrigin software. Differences were considered statistically significant at *P<0.05, **P<0.01, **P<0.001.

[2] = test system: preganglionic neurons to the adrenal medulla; assay: Preganglionic neuron protection in vivo after adrenomedullectomy; set-up: species or system rat; details: adult rats, 1 μg GDNF in gelfoam into the medullectomized adrenal gland, four weeks
Method: This type of target deprivation causes the death of all preganglionic neurons to the adrenal medulla at four weeks, as previously shown by Blottner and Baumgarten (Exp. Neurol. 118 (1992) 35-46).
Adrenomedullectomy was performed on adult male Hanover-Wistar rats. Preganglionic neurons in the spinal cord innervating adrenal medullary chomaffin cells were identified by retrograde tracing with Fast Blue or Fluoro-Gold (FG). Factors (1 μg each) were soaked in gelfoam (Spongostan, Ferrosan, Soeburg, Denmark) prior to implantation into unilaterally medullectomized adrenal glands. Numbers of FG-labeled preganglionic neurons were determined by cell counts of complete series of longitudinal sections through spinal cord segments T7-T10 four weeks post-surgery. Only brightly fluorescent neurons containing a clearly visible nucleus were counted. Total numbers were corrected for possible double counts of split nuclei according to Abercombie's formula. Numbers of preganglionic neurons to the adrenal medulla surviving in sham-operated animals and on the unlesioned side were set as 100%. Data are given as mean values±SEM and the statistical significance of intergroup differences was determined by Student's t-test.

[3] = test system: chick ciliary ganglionic (CG) neurons; assay: Survival of embryonic chick ciliary ganglionic (CG) neurons, 24 h, counting of surviving neurons; format: cell-based
Method: as §1, §2
Phosphatidylinositol-specific phospholipase C (PIPLC) is an enzyme that specifically cleaves glycosyl-phosphatidylinositol (GPI) linkages. Embryonic chick ciliary ganglionic neurons (E8) were isolated and seeded as described before. Neurons were incubated for 1 h at 37° C. with 1) 100 mU PIPLC or II) 100 mU PIPLC+2 ng/ml TGFβ or III) without enzyme and then growth factors were added. The number of surviving neurons was determined 24 h later.

[4] = test system: chick sympathetic ganglionic (SG) neurons; assay: Survival of embryonic chick sympathetic ganglionic (SG) neurons, 72 h, counting of surviving neurons; format: cell-based
Method: as §1, §2

[5] = test system: embryonic chicken dorsal root ganglia (DRG) neurons; assay: Survival of dissociated embryonic chick dorsal root ganglia (DRG) neurons, 48 h, counting of surviving neurons; format: cell-based; details: E8, 10% horse serum, saturating GDNF; compared with NGF in serum-free medium
[6] = test system: rat embryonic mesencephalic dopaminergic neurons (E14); assay: Survival of rat embryonic mesencephalic dopaminergic neurons, count of tyrosine hydroxylase (TH) immunoreactive neurons after 8 days; format: cell-based; details: GDNF 10 ng/ml, TGF-β3 2 ng/ml, 8 days in culture
Method: FIG. 8 depicts the survival promoting effect of GDNF on rat embryonic mesencephalic dopaminergic neurons (E14) is dependent on the presence of TGF-β. Dissociated cultures were treated with GDNF (10 ng/ml), with GDNF in the presence of anti-TGF-β1, -β2, -β3 (10 μg/ml), with TGF-β3 (2 ng/ml) or without any growth factor added (control) for 8 days in culture. Numbers of dopaminergic neurons were determined by counting the numbers of tyrosine hydroxylase (TH) immunoreactive neurons.

[7] = E8, serum-free, factor added by itself

B1: GDNF: rh GDNF, neurotrophic factor, member of the TGF-β superfamily (protein, UniProt P39905 78-211, looked up)
Glial cell line-derived …: SPDKQMAVLPRRERNRQAAAANPENSRGKGRRGQRGKNRGCVLTAIHLNVTDLGLGYETKEELIFRYCSGSCDAAETTYDKILKNLSRNRRLVSDKVGQACCRPIAFDDDLSFLDDNLVYHILRKHSAKRCGCI
In the case of B1, the “DRG neuron survival, single factor in serum-free medium” value [1, 7] is reported as “virtually no survival promoting effect”, the “effect on DRG neuron survival when added together with GDF-5” value ([1]; factor at saturating concentration plus GDF-5 20 ng/ml, E8, 48 h) is reported as “synergistic or additive effects” and the “protection of preganglionic neurons after adrenomedullectomy” value [2] is reported as “fully protected the neurons”. For the same molecule, the “CG neuron survival with GDNF supplemented with 10% horse serum” value ([3]; E8, 24 h, compared with CNTF 5 ng/ml) was “as effectively as a saturating concentration of CNTF”, the “EC50 of the synergistic survival effect” value ([3]; factor titrated in combination with 2 ng/ml of the other factor (GDNF/TGF-β), serum-free) was 0.06 ng/mL and the “CG neuron survival, single factor in fully-defined medium” value ([3]; serum-free, each at the saturating amount of 2 ng/ml) was “only marginal survival promoting effects”. For the same molecule, the “SG neuron survival with GDNF in serum containing medium” value ([4]; E8, 10% horse serum, saturating GDNF, compared with NGF in serum-free medium) was “levels identical to those achieved by addition of the respective neurotrophic factor”, the “SG neuron survival, single factor in serum-free medium” value [4, 7] was “virtually no survival promoting effect” and the “DRG neuron survival with GDNF in serum containing medium” value [5] was “levels identical to those achieved by addition of the respective neurotrophic factor”. For the same molecule, the “survival of dopaminergic neurons relative to untreated control cultures” value [6] was 160%.

Reference: patent US6790824B1, “Cytokines having neurotrophic activity” (Biopharm Gesellschaft zur biotechnologischen Entwicklung …, priority 1997, dated 2004)
